Measured values as given in patent US9610371B2, “Anticancer therapy” (STC.UNM, priority 2005, dated 2017).
Like-named read-outs stand apart in the source and are kept apart here.

Key:
[1] = 25 day toxicology in tumor bearing male Lewis rats; format: in vivo, Lewis rat; conditions: rat, in vivo
Procedure: Toxicology was assessed at 25 days in 4 groups of tumor bearing male Lewis rats (average volume […]). Rats in the first group, Cohort 1, were injected on day 1 only. Rats in second cohort were injected on days 1 and 2, while rats in the third cohort were injected on days 1, 2, and 3. Rats were injected with 2.56 μg, 0.5 μg, 0.5 μg DOTATOC, on day 1, day 2 and day 3, respectively, with a nominal activity of 3.7 MBq. Each dose was divided into 2 injections at 1 hour intervals. The rats received the following cumulative average activities per group: Cohort 1 (N=3) received 4.3±0.7 MBq, Cohort 2 (N=3) received 9.0±0.4 MBq, and Cohort 3 (N=4) received 12.6±0.3 MBq of ^213Bi-DOTATOC. Cohort 4 (N=4) was added as control group and injected twice daily with unlabelled DOTATOC on three consecutive days.
After 24 days, the animals were put into a metabolic cage to collect urine samples for creatinine clearance analysis. Creatine clearance was determined as previously described (20). After 24 hour urine collection, the animals were euthanized with halothane. For blood collection, a cardiac puncture was performed. Blood analysis consisted of hemoglobin (Hgb), hematocrit (Hct), red blood cells (RBC's), and white blood cells (WBC's) with differential, and platelets (Pt's). Additionally T4 and FSH values were assessed using the serum.
Additional groups were then designed to study the effects of the treatment on a somatostatin receptor positive tumor. The first group was designed to study the effects of treatment on large volume tumors (average volume 1720±608 mm^3). This group, Cohort 5 (N=5), received three fractionated doses of ^213Bi-DOTATOC (specific activity 7.4 MBq ^213Bi/1 μG DOTATOC) with a total average cumulative dose of 13.0±0.5 MBq of ^213Bi-DOTATOC. The last cohort, the sixth cohort (N=4), was injected with two fractionated doses, ^213Bi-DOTATOC (specific activity 7.4 MBq ^213Bi/1 μG DOTATOC) with a total average cumulative dose of 22.2±0.7 MBq of ^213Bi-DOTATOC. As described earlier, each dose was divided into 2 injections separated by a 1 hour interval. Tumor response to the treatment was assessed in all cohorts by daily tumor measurements.
(§1) Organs were harvested and immediately placed in 10% formalin for a minimum of 48 hours. Following fixation in formalin, bone samples were placed in decalcifying solution for 36 hours. Trimmed organs were sent to the TriCore Laboratories (Albuquerque, N. Mex.) where they were embedded in paraffin, sectioned, and stained with Hematoxylin and Eosin (H and E). Histopathologic evaluation was performed by a board certified veterinary pathologist (DFK) who examined the following organs of each animal: heart, lung, kidneys, testicles, spleen, pancreas, pituitary bone marrow, urinary bladder, adrenals, and two different sections of the liver.
(§2) Sections of both the right and left kidneys were examined to determine nephrotoxicity in all cohorts. Bone marrow was examined to evaluate hypoplasia and other lesions in Cohorts 3 and 4. Interstitial nephritis and bone marrow were scored as follows: 0 no lesions, 1 minimal lesions, 2 mild lesions, 3 moderate lesions, and 4 severe lesions.
(§3) For the pathology scoring, to evaluate nephrotoxicity on the 6 treatment groups, a frequency analysis was performed in StatXact-5 using the Jonckheere-Terpstra Test. For all other data, graphs and calculations were performed in SigmaStat®-3 and SigmaPlot®-9 as well as Graph Pad Prism®-4 using the t-test. For all statistical tests results were considered significant when p<0.05. Animal biodistribution and tumor volume data are expressed as the average, plus or minus the SEM.

[2] = Biodistribution in tumor bearing and non-tumor bearing rats; conditions: rat, in vivo, total radioactivity
[3] = as above; conditions: rat, in vivo
Procedure: FIG. 13: A, B Graphical comparisons of Tumor and Non-Tumor Bearing Rats at 1 hour post injection of ^213Bi-DOTATOC. Columns, means, Bars, SEM, white columns represent non-tumor bearing rats and black columns represent tumor bearing rats. Significance of p<0.05 is represented by a (*).
as §3

[4] = rat, in vivo
Procedure: A 26 week toxicology study was performed in 3 groups of rats. The first group, Cohort 7 (N=3), received three fractionated doses ^213Bi-DOTATOC (specific activity 7.4 MBq ^213Bi/1 μG DOTATOC with a total average cumulative dose of 12.75±1.1 MBq. The second group, Cohort 8 (N=3), received D-lysine (concentration 400 mg/mL) immediately before receiving three fractionated doses ^213Bi-DOTATOC with a specific activity 7.4 MBq ^213Bi/1 μG DOTATOC with a total average cumulative dose of 11.39±0.14 MBq. The third group, cohort 9 (N=3) received 3 fractionated doses of DOTATOC. Rats were injected with 2.56 μg, 0.5 μg, 0.5 μg DOTATOC, on day 1, day 2 and day 3, respectively. As described earlier, each dose was divided into 2 injections separated by a 1 hour interval.
as §1, §2

C[C@@H](O)[C@@H]1NC(=O)[C@H](CCCCN)NC(=O)[C@@H](Cc2c[nH]c3ccccc23)NC(=O)[C@H](Cc2ccc(O)cc2)NC(=O)[C@@H](NC(=O)[C@@H](Cc2ccccc2)NC(=O)CN2CCN(CC(=O)O)CCN(CC(=O)O)CCN(CC(=O)O)CC2)CSSC[C@@H](C(=O)N[C@H](CO)[C@@H](C)O)NC1=O [^213Bi-DOTATOC, metal not drawn]
FSH values vs control animals [1]: No significant changes
average histopathologic score for nephrititis [1]: 1
hematology results vs control group [1]: did not show any significant differences
histopathological examination of heart, lungs, liver, spleen, urinary bladder [1]: no evidence of treatment induced toxicity
histopathology of testes, adrenals, pancreas [1]: No histopathologic abnormalities
likelihood of interstitial nephrititis with dose [1]: increased with increasing dose
nephrotoxicity with low-dose [1]: minimal nephrotoxicity
toxicity in the high-dose treatment cohort (kidney) [1]: Minimal toxicity
tissue uptake at 3 h ([2]; accumulation of radioactivity in the blood): 0.02 %ID/g
tissue uptake at 3 h ([2]; accumulation of radioactivity in the bone marrow): 0.06 ± 0.02 %ID/g
tissue uptake at 3 h ([2]; accumulation of radioactivity in the kidneys): 11.2 ± 0.46 %ID/g
tissue uptake at 3 h ([2]; accumulation of radioactivity in the liver): 0.14 ± 0.02 %ID/g
tissue uptake at 3 h ([2]; accumulation of radioactivity in the spleen): 0.08 ± 0.01 %ID/g
tissue uptake at 3 h ([2]; accumulation of radioactivity in the stomach): 0.08 ± 0.01 %ID/g
tissue uptake at 3 h ([2]; accumulation of radioactivity in the testis): 0.02 %ID/g
localization in stomach and muscle, tumor vs non-tumor bearing rats [3]: significantly higher
FSH or T4 serum values vs control animals [4]: No significant changes
adrenal histopathology [4]: minimal nodular cortical hyperplasia in both adrenals
creatinine clearance vs control group (DOTATOC only) [4]: No difference
hematology results vs control group [4]: did not show any significant differences
liver histopathology [4]: mild or moderate cholangiohepatitis and perivasculitits
lung histopathology [4]: minimal to mild interstitial pneumonia
microcystic degeneration in the pituitary [4]: mild to moderate
microcystic pancreatic degeneration [4]: mild to moderate
rats with one adrenal each with nodular cortical hyperplasia [4]: 2 rats
